Results reported in publication PMC2581641 (Molecular microbiology, 2008).

T1: λCI-AlgQ fusion protein (P. aeruginosa, UniProt P15275 1-160)
T1 sequence (looked up): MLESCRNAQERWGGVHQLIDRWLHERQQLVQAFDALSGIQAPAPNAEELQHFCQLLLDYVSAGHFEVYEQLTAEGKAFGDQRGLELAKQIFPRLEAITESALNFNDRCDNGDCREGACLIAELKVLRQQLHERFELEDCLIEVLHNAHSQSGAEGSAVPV

T2: λCI-Rsd fusion protein with substitution G14E (E. coli, UniProt P0AFX4 1-158, G14E)
T2 sequence (looked up): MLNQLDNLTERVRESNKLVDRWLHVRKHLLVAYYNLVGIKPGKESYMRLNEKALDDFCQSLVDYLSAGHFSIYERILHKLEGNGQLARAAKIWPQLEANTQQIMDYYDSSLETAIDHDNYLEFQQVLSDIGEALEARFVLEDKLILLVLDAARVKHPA

T3: λCI-Rsd fusion protein with substitutions G14E and Y34F (E. coli, UniProt P0AFX4 1-158, G14E | Y34F)
T3 sequence (looked up): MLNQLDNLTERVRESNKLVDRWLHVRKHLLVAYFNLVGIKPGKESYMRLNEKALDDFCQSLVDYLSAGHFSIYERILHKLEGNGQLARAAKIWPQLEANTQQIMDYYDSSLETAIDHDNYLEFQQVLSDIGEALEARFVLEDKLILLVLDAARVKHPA

T4: λCI-Rsd fusion protein with substitution Y34F (E. coli, UniProt P0AFX4 1-158, Y34F)
T4 sequence (looked up): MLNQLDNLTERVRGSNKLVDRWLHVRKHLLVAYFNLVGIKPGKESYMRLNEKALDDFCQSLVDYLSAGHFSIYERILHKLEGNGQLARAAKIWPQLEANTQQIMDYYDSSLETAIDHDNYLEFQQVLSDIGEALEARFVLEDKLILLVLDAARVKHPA


Experiments:
Test in all cases: two-hybrid
λCI-AlgQ fusion protein = target: T1, λCI-AlgQ fusion protein
[1] = target: T2, λCI-Rsd fusion protein with …
[2] = target: T3, λCI-Rsd fusion protein with …
[3] = target: T4, λCI-Rsd fusion protein with …

Row | Binder | fold activation of lacZ transcription (λCI-AlgQ fusion protein) [fold] | fold activation of lacZ transcription [1] [fold] | fold activation of lacZ transcription [2] [fold] | fold activation of lacZ transcription [3] [fold]
1 | α-Pa σ^70 region 2 fusion protein (domain or fragment, P. aeruginosa, UniProt P26480 96-450, looked up) TTDPVRMYMREMGTVELLTREGEIEIAKRIEEGIREVMSAIAQFPGTVDSILADYNRIVAEGGRLSDVLSGYIDPDDGSLPAEEVEPVNLKDDSADSKEKDDEEEESDDSSDSDDEGDGGPDPEEARLRFTAVSEQLDKAKKALKKHGRGSKQATAELTGLAELFMPIKLVPKQFDALVARVRSALEGVRAQERAIMQLCVRDARMPRADFLRLFPNHETDEKWVDSVLKSKPKYAEAIERLRDDILRNQQKLAALESEVELTVAEIKEINRAMSIGEAKARRAKKEMVEANLRLVISIAKKYTNRGLQFLDLIQEGNIGLMKAVDKFEYRRGYKFSTYATWWIRQAITRSIADQ | ~14 |  |  | 
2 | α-σ^70 region 2 fusion protein (domain or fragment, E. coli, UniProt P00579 94-448, looked up) TTDPVRMYMREMGTVELLTREGEIDIAKRIEDGINQVQCSVAEYPEAITYLLEQYDRVEAEEARLSDLITGFVDPNAEEDLAPTATHVGSELSQEDLDDDEDEDEEDGDDDSADDDNSIDPELAREKFAELRAQYVVTRDTIKAKGRSHATAQEEILKLSEVFKQFRLVPKQFDYLVNSMRVMMDRVRTQERLIMKLCVEQCKMPKKNFITLFTGNETSDTWFNAAIAMNKPWSEKLHDVSEEVHRALQKLQQIEEETGLTIEQVKDINRRMSIGEAKARRAKKEMVEANLRLVISIAKKYTNRGLQFLDLIQEGNIGLMKAVDKFEYRRGYKFSTYATWWIRQAITRSIADQAR |  | ~10 | ~12 | ~9
